Results from the supplement of paper PMC11908140.

B1: library; numbered along this chain (parent)
chain: MRKPRAAVGSGHRKQAASQEGRQKHAKNNSQAKPSACDGLARQPEEVVLQASVSSYHLFRDVAEVTAFRGSLLSWYDQEKRDLPWRRRAEDEMDLDRRAYAVWVSEVMLQQTQVATVINYYTGWMQKWPTLQDLASASLEEVNQLWAGLGYYSRGRRLQEGARKVVEELGGHMPRTAETLQQLLPGVGRYTAGAIASIAFGQATGVVDGNVARVLCRVRAIGADPSSTLVSQQLWGLAQQLVDPARPGDFNQAAMELGATVCTPQRPLCSQCPVESLCRARQRVEQEQLLASGSLSGSPDVEECAPNTGQCHLCLPPSEPWDQTLGVVNFPRKASRKPPREESSATCVLEQPGALGAQILLVQRPNSGLLAGLWEFPSVTWEPSEQLQRKALLQELQRWAGPLPATHLRHLGEVVHTFSHIKLTYQVYGLALEGQTPVTTVPPGARWLTQEEFHTAAVSTAMKKVFRVYQGQQPGTCMGSKRSQVSSPCSRKKPRMGQQVLDNFFRSHISTDAHSLNSAAQ

Variants of: B1
Assay: 8OG:A repair function score (normalized; synonymous = 0, nonsense = -1) (normalized log-likelihood score); higher = more repair activity (WT-like)
Details: with 8OG:A DNA repair reporter (GFP) in HEK-293 MUTYH KO cells
Experimental: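 Saturation mutagenesis (NNN codon scan) of the MUTYH cDNA (521-aa nuclear isoform NM_001048174.1 / NP_001041639), stably expressed under doxycycline induction in HEK-293 MUTYH knockout cells. Cells were co-transfected with an 8OG:A-bearing GFP repair reporter plus mCherry and sorted 72 h later into GFP+ and GFP− bins, three replicates per tile. The Rosace log2 enrichment (GFP+ vs GFP−) was converted per tile to a normalized function score with synonymous variants centered at 0 and nonsense variants (codons 1-471) at -1; low-abundance variants were removed.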

Row | Variant | 8OG:A repair function score
1 | MRKPRAAVGSGHRKQAASQEGRQKHAKNNSQAKPSACDGLARQPEEVVLQASVSSYHLFRDVAEVTAFRGSLLSWYDQEKRDLPWRRRAEDEMDLDRRAYAVWVSEVMLQQTQVATFINYYTGWMQKWPTLQDLASASLEEVNQLWAGLGYYSRGRRLQEGARKVVEELGGHMPRTAETLQQLLPGVGRYTAGAIASIAFGQATGVVDGNVARVLCRVRAIGADPSSTLVSQQLWGLAQQLVDPARPGDFNQAAMELGATVCTPQRPLCSQCPVESLCRARQRVEQEQLLASGSLSGSPDVEECAPNTGQCHLCLPPSEPWDQTLGVVNFPRKASRKPPREESSATCVLEQPGALGAQILLVQRPNSGLLAGLWEFPSVTWEPSEQLQRKALLQELQRWAGPLPATHLRHLGEVVHTFSHIKLTYQVYGLALEGQTPVTTVPPGARWLTQEEFHTAAVSTAMKKVFRVYQGQQPGTCMGSKRSQVSSPCSRKKPRMGQQVLDNFFRSHISTDAHSLNSAAQ [V117F] | -1.21
2 | MRKPRAAVGSGHRKQAASQEGRQKHAKNNSQAKPSACDGLARQPEEVVLQASVSSYHLFRDVAEVTAFRGSLLSWYDQEKRDLPWRRRAEDEMDLDRRAYAVWVSEVMLQQTQVATHINYYTGWMQKWPTLQDLASASLEEVNQLWAGLGYYSRGRRLQEGARKVVEELGGHMPRTAETLQQLLPGVGRYTAGAIASIAFGQATGVVDGNVARVLCRVRAIGADPSSTLVSQQLWGLAQQLVDPARPGDFNQAAMELGATVCTPQRPLCSQCPVESLCRARQRVEQEQLLASGSLSGSPDVEECAPNTGQCHLCLPPSEPWDQTLGVVNFPRKASRKPPREESSATCVLEQPGALGAQILLVQRPNSGLLAGLWEFPSVTWEPSEQLQRKALLQELQRWAGPLPATHLRHLGEVVHTFSHIKLTYQVYGLALEGQTPVTTVPPGARWLTQEEFHTAAVSTAMKKVFRVYQGQQPGTCMGSKRSQVSSPCSRKKPRMGQQVLDNFFRSHISTDAHSLNSAAQ [V117H] | -1.24
3 | MRKPRAAVGSGHRKQAASQEGRQKHAKNNSQAKPSACDGLARQPEEVVLQASVSSYHLFRDVAEVTAFRGSLLSWYDQEKRDLPWRRRAEDEMDLDRRAYAVWVSEVMLQQTQVATNINYYTGWMQKWPTLQDLASASLEEVNQLWAGLGYYSRGRRLQEGARKVVEELGGHMPRTAETLQQLLPGVGRYTAGAIASIAFGQATGVVDGNVARVLCRVRAIGADPSSTLVSQQLWGLAQQLVDPARPGDFNQAAMELGATVCTPQRPLCSQCPVESLCRARQRVEQEQLLASGSLSGSPDVEECAPNTGQCHLCLPPSEPWDQTLGVVNFPRKASRKPPREESSATCVLEQPGALGAQILLVQRPNSGLLAGLWEFPSVTWEPSEQLQRKALLQELQRWAGPLPATHLRHLGEVVHTFSHIKLTYQVYGLALEGQTPVTTVPPGARWLTQEEFHTAAVSTAMKKVFRVYQGQQPGTCMGSKRSQVSSPCSRKKPRMGQQVLDNFFRSHISTDAHSLNSAAQ [V117N] | -1.21
4 | MRKPRAAVGSGHRKQAASQEGRQKHAKNNSQAKPSACDGLARQPEEVVLQASVSSYHLFRDVAEVTAFRGSLLSWYDQEKRDLPWRRRAEDEMDLDRRAYAVWVSEVMLQQTQVATGINYYTGWMQKWPTLQDLASASLEEVNQLWAGLGYYSRGRRLQEGARKVVEELGGHMPRTAETLQQLLPGVGRYTAGAIASIAFGQATGVVDGNVARVLCRVRAIGADPSSTLVSQQLWGLAQQLVDPARPGDFNQAAMELGATVCTPQRPLCSQCPVESLCRARQRVEQEQLLASGSLSGSPDVEECAPNTGQCHLCLPPSEPWDQTLGVVNFPRKASRKPPREESSATCVLEQPGALGAQILLVQRPNSGLLAGLWEFPSVTWEPSEQLQRKALLQELQRWAGPLPATHLRHLGEVVHTFSHIKLTYQVYGLALEGQTPVTTVPPGARWLTQEEFHTAAVSTAMKKVFRVYQGQQPGTCMGSKRSQVSSPCSRKKPRMGQQVLDNFFRSHISTDAHSLNSAAQ [V117G] | -0.408
5 | MRKPRAAVGSGHRKQAASQEGRQKHAKNNSQAKPSACDGLARQPEEVVLQASVSSYHLFRDVAEVTAFRGSLLSWYDQEKRDLPWRRRAEDEMDLDRRAYAVWVSEVMLQQTQVATPINYYTGWMQKWPTLQDLASASLEEVNQLWAGLGYYSRGRRLQEGARKVVEELGGHMPRTAETLQQLLPGVGRYTAGAIASIAFGQATGVVDGNVARVLCRVRAIGADPSSTLVSQQLWGLAQQLVDPARPGDFNQAAMELGATVCTPQRPLCSQCPVESLCRARQRVEQEQLLASGSLSGSPDVEECAPNTGQCHLCLPPSEPWDQTLGVVNFPRKASRKPPREESSATCVLEQPGALGAQILLVQRPNSGLLAGLWEFPSVTWEPSEQLQRKALLQELQRWAGPLPATHLRHLGEVVHTFSHIKLTYQVYGLALEGQTPVTTVPPGARWLTQEEFHTAAVSTAMKKVFRVYQGQQPGTCMGSKRSQVSSPCSRKKPRMGQQVLDNFFRSHISTDAHSLNSAAQ [V117P] | -1.02
6 | MRKPRAAVGSGHRKQAASQEGRQKHAKNNSQAKPSACDGLARQPEEVVLQASVSSYHLFRDVAEVTAFRGSLLSWYDQEKRDLPWRRRAEDEMDLDRRAYAVWVSEVMLQQTQVATDINYYTGWMQKWPTLQDLASASLEEVNQLWAGLGYYSRGRRLQEGARKVVEELGGHMPRTAETLQQLLPGVGRYTAGAIASIAFGQATGVVDGNVARVLCRVRAIGADPSSTLVSQQLWGLAQQLVDPARPGDFNQAAMELGATVCTPQRPLCSQCPVESLCRARQRVEQEQLLASGSLSGSPDVEECAPNTGQCHLCLPPSEPWDQTLGVVNFPRKASRKPPREESSATCVLEQPGALGAQILLVQRPNSGLLAGLWEFPSVTWEPSEQLQRKALLQELQRWAGPLPATHLRHLGEVVHTFSHIKLTYQVYGLALEGQTPVTTVPPGARWLTQEEFHTAAVSTAMKKVFRVYQGQQPGTCMGSKRSQVSSPCSRKKPRMGQQVLDNFFRSHISTDAHSLNSAAQ [V117D] | -1
